According to article PMC4409664 (Cell, 2015):

Biological target: wild-type human serum retinol binding protein with an N-terminal hemagglutinin tag (RBP^HA WT) (human, UniProt P02753 19-201)
Experiment: ELISA

Kd: 59 nM
B1: STRA6 (stimulated by retinoic acid 6) membrane receptor with a myc tag (STRA6^myc) (receptor, UniProt Q9BX79 1-667, looked up)
chain: MSSQPAGNQTSPGATEDYSYGSWYIDEPQGGEELQPEGEVPSCHTSIPPGLYHACLASLSILVLLLLAMLVRRRQLWPDCVRGRPGLPSPVDFLAGDRPRAVPAAVFMVLLSSLCLLLPDEDALPFLTLASAPSQDGKTEAPRGAWKILGLFYYAALYYPLAACATAGHTAAHLLGSTLSWAHLGVQVWQRAECPQVPKIYKYYSLLASLPLLLGLGFLSLWYPVQLVRSFSRRTGAGSKGLQSSYSEEYLRNLLCRKKLGSSYHTSKHGFLSWARVCLRHCIYTPQPGFHLPLKLVLSATLTGTAIYQVALLLLVGVVPTIQKVRAGVTTDVSYLLAGFGIVLSEDKQEVVELVKHHLWALEVCYISALVLSCLLTFLVLMRSLVTHRTNLRALHRGAALDLSPLHRSPHPSRQAIFCWMSFSAYQTAFICLGLLVQQIIFFLGTTALAFLVLMPVLHGRNLLLFRSLESSWPFWLTLALAVILQNMAAHWVFLETHDGHPQLTNRRVLYAATFLLFPLNVLVGAMVATWRVLLSALYNAIHLGQMDLSLLPPRAATLDPGYYTYRNFLKIEVSQSHPAMTAFCSLLLQAQSLLPRTMAAPQDSLRPGEEDEGMQLLQTKDSMAKGARPGASRGRARWGLAYTLLHNPTLQVFRKTALLGANGAQP
